Results as given in article doi:10.1101/2020.12.20.423689 (bioRxiv, 2020).

Target: mitoribosomal protein uL12m (human, UniProt P52815 37-198)
Test: cryo-EM structure

B1: human mitochondrial elongation factor G2 (EF-G2mt) (natural protein)
chain: MLTNLRIFAMSHQTIPSVYINNICCYKIRASLKRLKPHVPLGRNCSSLPGLIGNDIKSLHSIINPPIAKIRNIGIMAHIDAGKTTTTERILYYSGYTRSLGDVDDGDTVTDFMAQERERGITIQSAAVTFDWKGYRVNLIDTPGHVDFTLEVERCLRVLDGAVAVFDASAGVEAQTLTVWRQADKHNIPRICFLNKMDKTGASFKYAVESIREKLKAKPLLLQLPIGEAKTFKGVVDVVMKEKLLWNCNSNDGKDFERKPLLEMNDPELLKETTEARNALIEQVADLDDEFADLVLEEFSENFDLLPAEKLQTAIHRVTLAQTAVPVLCGSALKNKGIQPLLDAVTMYLPSPEERNYEFLQWYKDDLCALAFKVLHDKQRGPLVFMRIYSGTIKPQLAIHNINGNCTERISRLLLPFADQHVEIPSLTAGNIALTVGLKHTATGDTIVSSKSSALAAARRAEREGEKKHRQNNEAERLLLAGVEIPEPVFFCTIEPPSLSKQPDLEHALKCLQREDPSLKVRLDPDSGQTVLCGMGELHIEIIHDRIKREYGLETYLGPLQVAYRETILNSVRATDTLDRTLGDKRHLVTVEVEARPIETSSVMPVIEFEYAESINEGLLKVSQEAIENGIHSACLQGPLLGSPIQDVAITLHSLTIHPGTSTTMISACVSRCVQKALKKADKQVLEPLMNLEVTVARDYLSPVLADLAQRRGNIQEIQTRQDNKVVIGFVPLAEIMGYSTVLRTLTSGSATFALELSTYQAMNPQDQNTLLNRRSGLT
Question: Does B1 bind?
Answer: binds
